Series [1] deals with biotinyl-Leu-oxazolone. As to the kind of experiment: self-aminoacylation, catalytic enhancement (BLO) (fold over background); higher = more active; k-Seq, kA / k0A0; sequences stand for … in GGGAAUGGAUCCACAUCUACGAAUUC…UUCACUGCAGACUUGACGAAGCUG
In outline:
(§1)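 Mutagenized RNA pools with a 21-nt variable region (0.43 μM) reacted with each biotinyl-aminoacyl-oxazolone at 2–1250 μM. Reactions ran in 50 μL HEPES/NaCl/KCl/MgCl2/CaCl2 buffer with 5% acetonitrile, pH 6.9–7.0, for 90 minutes at room temperature. Streptavidin-captured RNA was quantified by triplicate qPCR and Illumina sequencing, and per-sequence fraction reacted was fit to a pseudo-first-order model with 1000 bootstraps. Catalytic enhancement is median kA divided by the uncatalyzed rate, the low-activity peak of a bimodal Gaussian fit.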

Series [2] relates to biotinyl-Ile-oxazolone. As to the kind of experiment: self-aminoacylation, catalytic enhancement (BIO) (fold over background); higher = more active; k-Seq, kA / k0A0; sequences stand for … in GGGAAUGGAUCCACAUCUACGAAUUC…UUCACUGCAGACUUGACGAAGCUG
In outline:
as §1

The test system of series [3] is biotinyl-Val-oxazolone. In words: self-aminoacylation, catalytic enhancement (BVO) (fold over background); higher = more active; k-Seq, kA / k0A0; sequences stand for … in GGGAAUGGAUCCACAUCUACGAAUUC…UUCACUGCAGACUUGACGAAGCUG
In outline: as §1

For series [4], the system named is biotinyl-Trp-oxazolone. In words: self-aminoacylation, catalytic enhancement (BWO) (fold over background); higher = more active; k-Seq, kA / k0A0; sequences stand for … in GGGAAUGGAUCCACAUCUACGAAUUC…UUCACUGCAGACUUGACGAAGCUG
In outline: as §1

The test system of series [5] is biotinyl-Phe-oxazolone. As to the kind of experiment: self-aminoacylation, catalytic enhancement (BFO) (fold over background); higher = more active; k-Seq, kA / k0A0; sequences stand for … in GGGAAUGGAUCCACAUCUACGAAUUC…UUCACUGCAGACUUGACGAAGCUG
In outline: as §1

The subject of series [6] is biotinyl-Met-oxazolone. In words: self-aminoacylation, catalytic enhancement (BMO) (fold over background); higher = more active; k-Seq, kA / k0A0; sequences stand for … in GGGAAUGGAUCCACAUCUACGAAUUC…UUCACUGCAGACUUGACGAAGCUG
In outline: as §1

Here are results for 25 sequences from the supplement of paper PMC9233669.

Variants at the floor of the assay were thinned out.

Consider “AUUGACCUAGGUCAGCGGGUG [Fam2.2 aminoacylation ribozyme variant]”, for which the self-aminoacylation in series [1] was 3.01; in series [2], 2.61; in series [3], 2.86; in series [4] it was 3.29; in series [5] it was 12.5; in series [6], 2.59.
Turning to “AUUACCCUGGUCAUCGAGUGA [Fam2.1 aminoacylation ribozyme variant]”, the self-aminoacylation in series [1] stood at 86.9; in series [2], 34.6; in series [3], 37.9; in series [4] it was 99.1; in series [5] it was 657; in series [6], 91.3.
Turning to “AAGUAUGCUAAUAAUCGCAAG [Fam3.1 aminoacylation ribozyme variant]”, the self-aminoacylation in series [1] was 1.14; in series [2], 1.45; in series [3], 1.05; in series [4] it was 1.39; in series [5] it was 2; in series [6], 1.28.
Turning to “AAUAACCUAGGUCAUCGGGUG [Fam2.2 aminoacylation ribozyme variant]”, the self-aminoacylation was 4.57 in series [1]; 3.18 in series [2]; 3.3 in series [3]; 5.23 in series [4]; 22.8 in series [5]; 4.25 in series [6].
Turning to “AUUUUUGCUAAUAGUCGCAAG [Fam3.1 aminoacylation ribozyme variant]”, the self-aminoacylation in series [1] is 0.994; in series [2], 1.37; in series [3], 1.02; in series [4], 1.02; in series [5], 1.71; in series [6], 1.07.
Take “AAGGUUGCUAAUAUUCGCAAG [Fam3.1 aminoacylation ribozyme variant]”: the self-aminoacylation is 2.03 in series [1]; 1.59 in series [2]; 1.26 in series [3]; 1.22 in series [4]; 1.6 in series [5]; 1.22 in series [6].
On to “AUUCACCGAGGUCAUGGGGUG [Fam2.2 aminoacylation ribozyme variant]”, for which the self-aminoacylation was found to be 14.7 in series [1]; 6.15 in series [2]; 6.55 in series [3]; 11.4 in series [4]; 86.3 in series [5]; 11.4 in series [6].
For “AAUCACCUAGGUCUUCGGGUG [Fam2.2 aminoacylation ribozyme variant]”, the self-aminoacylation in series [1] came to 5.09; in series [2] it was 3.79; in series [3] it was 3.98; in series [4] it was 6.75; in series [5], 46.9; in series [6], 4.54.
As to “AAGUUUGCCAAUGGUCGCAAG [Fam3.1 aminoacylation ribozyme variant]”, the self-aminoacylation in series [1] is 1; in series [2] it was 0.987; in series [3], 0.852; in series [4], 1.01; in series [5] it was 0.499; in series [6], 1.02.
As to “CCACUCUUCAAGCAAUCGAUC [Fam1B.1 aminoacylation ribozyme variant]”, the self-aminoacylation stood at 0.522 in series [1]; 0.542 in series [2]; 0.735 in series [3]; 0.516 in series [4]; 1.28 in series [5]; 0.448 in series [6].
Turning to “AUGACCCUGGUCAACGAGUGA [Fam2.1 aminoacylation ribozyme variant]”, the self-aminoacylation in series [1] stood at 6.02; in series [2] it was 3.48; in series [3] it was 3.52; in series [4], 6.86; in series [5], 32.5; in series [6] it was 5.77.
On to “AAGUUUGCCAAUAGUCGUAAG [Fam3.1 aminoacylation ribozyme variant]”, for which the self-aminoacylation in series [1] was determined as 0.724; in series [2], 0.916; in series [3], 0.732; in series [4], 1.51; in series [5] it was 1.38; in series [6], 0.873.
Regarding “AUUCACCUAGUUCAUUGGGUG [Fam2.2 aminoacylation ribozyme variant]”, the self-aminoacylation came out at 3.47 in series [1]; 1.85 in series [2]; 1.62 in series [3]; 2.83 in series [4]; 18.9 in series [5]; 2.54 in series [6].
With “CUUACCCUGGUCAUCGAGUGA [Fam2.1 aminoacylation ribozyme variant]”, the self-aminoacylation in series [1] is 23.1; in series [2] it was 9.83; in series [3], 11; in series [4], 26.1; in series [5], 85.8; in series [6], 25.3.
Regarding “CCACACUUCAAGCUAACGGUC [Fam1B.1 aminoacylation ribozyme variant]”, the self-aminoacylation in series [1] came out at 0.444; in series [2], 0.568; in series [3] it was 0.78; in series [4], 0.546; in series [5], 0.79; in series [6], 0.532.
Regarding “AAAUUUGCUAAUAGUCCCAAG [Fam3.1 aminoacylation ribozyme variant]”, the self-aminoacylation is 0.923 in series [1]; 1.24 in series [2]; 1.03 in series [3]; 0.979 in series [4]; 1.68 in series [5]; 0.644 in series [6].
Regarding “CCACCCUUCAGGCAAUCGGUC [Fam1B.1 aminoacylation ribozyme variant]”, the self-aminoacylation in series [1] was found to be 1.55; in series [2], 1.71; in series [3] it was 2.12; in series [4] it was 1.71; in series [5] it was 1.82; in series [6], 1.57.
Turning to “AAGAUUGCUAAUAGUCGCAAA [Fam3.1 aminoacylation ribozyme variant]”, the self-aminoacylation is 1.43 in series [1]; 1.58 in series [2]; 1.3 in series [3]; 2.09 in series [4]; 1.39 in series [5]; 1.37 in series [6].
In the case of “CCACUUCAAACAAUCGGUUUG [Fam1A.1 aminoacylation ribozyme variant]”, the self-aminoacylation in series [1] came to 2.57; in series [2], 1.39; in series [3], 1.83; in series [4], 39.5; in series [5] it was 80.3; in series [6], 1.37.
Take “AUUUCCCUGGACAUCGAGUGA [Fam2.1 aminoacylation ribozyme variant]”: the self-aminoacylation in series [1] came to 5.46; in series [2], 2.83; in series [3], 3.54; in series [4], 8.11; in series [5], 41.7; in series [6] it was 6.51.
For the sequence “AAGUUGGCUAAUGGUCGCAAG [Fam3.1 aminoacylation ribozyme variant]”, the self-aminoacylation was determined as 1.1 in series [1]; 1.29 in series [2]; 1.4 in series [3]; 1.23 in series [4]; 1.01 in series [5]; 1.28 in series [6].
As to “AUUCUCCUAUGUCAUCGGGUG [Fam2.2 aminoacylation ribozyme variant]”, the self-aminoacylation turned out to be 11.6 in series [1]; 5.5 in series [2]; 5.62 in series [3]; 8.54 in series [4]; 65.9 in series [5]; 9.01 in series [6].
For the sequence “CCAGACUUCAAGCGAUCGGUC [Fam1B.1 aminoacylation ribozyme variant]”, the self-aminoacylation was determined as 1.83 in series [1]; 1.36 in series [2]; 1.8 in series [3]; 1.82 in series [4]; 1.63 in series [5]; 1.17 in series [6].
Turning to “AUUACCCAGGUCAUCGAGGGA [Fam2.1 aminoacylation ribozyme variant]”, the self-aminoacylation was 1.48 in series [1]; 1.36 in series [2]; 1.37 in series [3]; 1.16 in series [4]; 1.52 in series [5]; 1.38 in series [6].
For the sequence “AUUACGCUGGUGAUCGAGUGA [Fam2.1 aminoacylation ribozyme variant]”, the self-aminoacylation came to 5.37 in series [1]; 2.89 in series [2]; 2.59 in series [3]; 5.45 in series [4]; 25.3 in series [5]; 4.44 in series [6].
